The values that follow come from patent US6583276 (TECHNION RESEARCH AND DEVELOPMENT, dated 2003).

This experiment concerns the target T1, KDR/flk-1 VEGF receptor of HUVEC cells (human, UniProt P35968 20-1356).
T1 construct: whole, on cells; Endogenous receptor on confluent HUVEC cells
As to the kind of experiment: overview table, row 'Binding to Flk-1 and Flt-1 receptors'.

T1 sequence (P35968 20-1356): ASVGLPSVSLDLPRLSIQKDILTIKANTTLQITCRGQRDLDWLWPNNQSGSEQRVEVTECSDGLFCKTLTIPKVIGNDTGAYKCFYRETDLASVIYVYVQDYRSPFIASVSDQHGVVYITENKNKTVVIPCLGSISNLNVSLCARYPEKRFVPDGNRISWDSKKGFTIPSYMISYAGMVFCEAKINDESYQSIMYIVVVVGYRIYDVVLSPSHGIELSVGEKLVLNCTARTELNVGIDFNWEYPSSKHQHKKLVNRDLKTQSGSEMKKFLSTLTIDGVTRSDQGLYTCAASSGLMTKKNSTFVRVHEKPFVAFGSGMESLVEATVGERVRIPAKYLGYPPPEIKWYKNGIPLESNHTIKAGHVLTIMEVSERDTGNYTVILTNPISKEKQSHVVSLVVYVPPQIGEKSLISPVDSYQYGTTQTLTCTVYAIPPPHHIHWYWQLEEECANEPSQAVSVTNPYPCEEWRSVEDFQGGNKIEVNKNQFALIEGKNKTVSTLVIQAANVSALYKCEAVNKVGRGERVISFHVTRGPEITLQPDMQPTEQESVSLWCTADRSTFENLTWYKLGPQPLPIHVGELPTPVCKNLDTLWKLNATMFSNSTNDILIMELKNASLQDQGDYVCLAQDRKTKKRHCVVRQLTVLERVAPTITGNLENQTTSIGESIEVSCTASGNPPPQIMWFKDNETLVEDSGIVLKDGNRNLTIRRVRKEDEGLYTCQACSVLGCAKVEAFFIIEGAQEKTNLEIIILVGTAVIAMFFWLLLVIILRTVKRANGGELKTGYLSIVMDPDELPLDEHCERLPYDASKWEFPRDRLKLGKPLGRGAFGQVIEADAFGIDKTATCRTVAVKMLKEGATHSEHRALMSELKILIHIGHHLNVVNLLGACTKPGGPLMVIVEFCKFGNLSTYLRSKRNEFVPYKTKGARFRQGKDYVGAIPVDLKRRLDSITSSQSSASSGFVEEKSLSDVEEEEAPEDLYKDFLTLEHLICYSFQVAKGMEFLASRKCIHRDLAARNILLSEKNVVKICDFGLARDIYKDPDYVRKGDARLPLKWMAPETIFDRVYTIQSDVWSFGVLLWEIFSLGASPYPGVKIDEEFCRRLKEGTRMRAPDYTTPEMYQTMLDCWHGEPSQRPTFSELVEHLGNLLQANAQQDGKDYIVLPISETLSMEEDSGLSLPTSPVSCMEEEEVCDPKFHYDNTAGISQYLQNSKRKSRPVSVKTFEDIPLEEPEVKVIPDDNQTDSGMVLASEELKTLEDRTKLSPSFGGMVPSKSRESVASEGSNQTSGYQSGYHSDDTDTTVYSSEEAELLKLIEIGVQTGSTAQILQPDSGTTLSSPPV

B1: VEGF121 (ligand, human, UniProt P15692-9 27-147, looked up)
chain: APMAEGGGQNHHEVVKFMDVYQRSYCHPIETLVDIFQEYPDEIEYIFKPSCVPLMRCGGCCNDEGLECVPTEESNITMQIMRIKPHQGQHIGEMSFLQHNKCECRPKKDRARQEKCDKPRR
notes: mature; VEGF121 isoform of VEGF-A
Regarding B1, the binding result was “binds”.

B2: VEGF145 (recombinant human vascular endothelial growth factor form of 145 amino acids, exons 1-5, 6a and 8) (ligand)
chain: APMAEGGGQNHHEVVKFMDVYQRSYCHPIETLVDIFQEYPDEIEYIFKPSCVPLMRCGGCCNDEGLECVPTEESNITMQIMRIKPHQGQHIGEMSFLQHNKCECRPKKDRARQEKKSVRGKGKGQKRKRKKSRYKSWSVCDKPRR
notes: Produced in Sf9 insect cells with a recombinant baculovirus and partially purified on heparin-sepharose; also called r-VEGF
With B2, the binding result is recorded as “binds”.
